Data on four molecules can be found in doi:10.1101/2025.05.26.656073 (bioRxiv, 2025).

In data set [1] the target is T1, apo-OCP (carotenoid-free Orange Carotenoid Protein) (Synechocystis sp. PCC 6803), P74102.
T1 chain: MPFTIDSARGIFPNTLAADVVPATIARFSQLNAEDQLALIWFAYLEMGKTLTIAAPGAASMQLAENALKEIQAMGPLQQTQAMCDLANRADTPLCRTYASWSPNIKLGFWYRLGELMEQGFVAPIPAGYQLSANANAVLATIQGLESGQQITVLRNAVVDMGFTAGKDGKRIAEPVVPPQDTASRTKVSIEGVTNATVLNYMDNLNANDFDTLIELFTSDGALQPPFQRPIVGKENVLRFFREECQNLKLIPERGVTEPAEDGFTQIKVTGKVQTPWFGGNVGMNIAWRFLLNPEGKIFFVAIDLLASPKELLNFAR
Briefly: SAXS. As to conditions: remark: other sources report otherwise.

In data set [2] the target is T1, apo-OCP (carotenoid-free Orange …). Nature of the data set: SEC. As to conditions: remark: other sources report otherwise.
The data set “SEC” deals with the molecule itself. Briefly: SEC. (In general: SEC sorts molecules by how far they enter the pores of the column.)
Data set [3] concerns the target T2, Orange Carotenoid Protein, light-adapted state (OCP^R), wild type, canthaxanthin-binding holo form (Synechocystis sp. PCC 6803), P74102.
T2 chain: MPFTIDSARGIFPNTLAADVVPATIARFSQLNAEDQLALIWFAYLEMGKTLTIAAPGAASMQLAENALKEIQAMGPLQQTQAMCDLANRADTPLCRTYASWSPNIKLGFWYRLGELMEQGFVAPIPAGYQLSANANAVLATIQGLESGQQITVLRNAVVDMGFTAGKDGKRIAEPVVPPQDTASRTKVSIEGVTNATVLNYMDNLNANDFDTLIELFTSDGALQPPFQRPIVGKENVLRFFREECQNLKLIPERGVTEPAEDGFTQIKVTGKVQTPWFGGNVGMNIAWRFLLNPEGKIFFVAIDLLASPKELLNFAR
Nature of the data set: SAXS. As to conditions: remark: other sources report otherwise.

Data set [4] concerns the target T2, Orange Carotenoid Protein, …. Briefly: SEC. The conditions noted are these: remark: other sources report otherwise.
For data set [5], the target named is T3, Orange Carotenoid Protein, dark-adapted state (OCP^O), wild type, canthaxanthin-binding holo form (Synechocystis sp. PCC 6803), P74102.
T3 chain: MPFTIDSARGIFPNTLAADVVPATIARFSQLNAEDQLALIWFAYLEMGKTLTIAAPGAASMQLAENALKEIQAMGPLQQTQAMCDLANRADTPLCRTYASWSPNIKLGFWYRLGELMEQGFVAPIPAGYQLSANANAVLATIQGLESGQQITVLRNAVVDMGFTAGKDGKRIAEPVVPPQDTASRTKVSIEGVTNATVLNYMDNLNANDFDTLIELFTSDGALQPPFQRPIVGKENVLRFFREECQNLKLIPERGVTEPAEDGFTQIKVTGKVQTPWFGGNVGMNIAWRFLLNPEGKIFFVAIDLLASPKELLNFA
Nature of the data set: transient grating spectroscopy. As to conditions: remark: other sources report otherwise.

Data set [6] has as its target T3, Orange Carotenoid Protein, dark-adapted …. Nature of the data set: SAXS. As to conditions: remark: other sources report otherwise.
Data set [7] has the same target. Nature of the data set: SEC. As to conditions: remark: other sources report otherwise.

B1: apo-OCP (carotenoid-free Orange Carotenoid Protein), P74102 1-317 (natural protein)
chain: MPFTIDSARGIFPNTLAADVVPATIARFSQLNAEDQLALIWFAYLEMGKTLTIAAPGAASMQLAENALKEIQAMGPLQQTQAMCDLANRADTPLCRTYASWSPNIKLGFWYRLGELMEQGFVAPIPAGYQLSANANAVLATIQGLESGQQITVLRNAVVDMGFTAGKDGKRIAEPVVPPQDTASRTKVSIEGVTNATVLNYMDNLNANDFDTLIELFTSDGALQPPFQRPIVGKENVLRFFREECQNLKLIPERGVTEPAEDGFTQIKVTGKVQTPWFGGNVGMNIAWRFLLNPEGKIFFVAIDLLASPKELLNFAR
The stoichiometry N is a count of units in the complex or per binding partner. In general, Kd refers to the constant that tells how readily two partners part at equilibrium. The low end stands for a tighter complex, the high end for a looser complex. Take B1: in data set [1], the stoichiometry N turned out to be 2. In data set [2], this molecule yielded a Kd of 500 nM and a stoichiometry N of 2.

B2: OCP(R27L) mutant, light-adapted state (natural protein)
chain: MPFTIDSARGIFPNTLAADVVPATIALFSQLNAEDQLALIWFAYLEMGKTLTIAAPGAASMQLAENALKEIQAMGPLQQTQAMCDLANRADTPLCRTYASWSPNIKLGFWYRLGELMEQGFVAPIPAGYQLSANANAVLATIQGLESGQQITVLRNAVVDMGFTAGKDGKRIAEPVVPPQDTASRTKVSIEGVTNATVLNYMDNLNANDFDTLIELFTSDGALQPPFQRPIVGKENVLRFFREECQNLKLIPERGVTEPAEDGFTQIKVTGKVQTPWFGGNVGMNIAWRFLLNPEGKIFFVAIDLLASPKELLNFAR
Consider B2, for which the “stoichiometry N” value in “SEC” worked out at 2.

B3: Orange Carotenoid Protein, light-adapted state (OCP^R), wild type, canthaxanthin-binding holo form, P74102 1-317 (natural protein)
chain: MPFTIDSARGIFPNTLAADVVPATIARFSQLNAEDQLALIWFAYLEMGKTLTIAAPGAASMQLAENALKEIQAMGPLQQTQAMCDLANRADTPLCRTYASWSPNIKLGFWYRLGELMEQGFVAPIPAGYQLSANANAVLATIQGLESGQQITVLRNAVVDMGFTAGKDGKRIAEPVVPPQDTASRTKVSIEGVTNATVLNYMDNLNANDFDTLIELFTSDGALQPPFQRPIVGKENVLRFFREECQNLKLIPERGVTEPAEDGFTQIKVTGKVQTPWFGGNVGMNIAWRFLLNPEGKIFFVAIDLLASPKELLNFAR
On to B3, for which, in data set [3], the stoichiometry N came out at 2. In data set [4], this molecule came in with a dissociation constant (Kd) of 1800 nM and a stoichiometry N of 2.

B4: Orange Carotenoid Protein, dark-adapted state (OCP^O), wild type, canthaxanthin-binding holo form, P74102 1-316 (natural protein)
chain: MPFTIDSARGIFPNTLAADVVPATIARFSQLNAEDQLALIWFAYLEMGKTLTIAAPGAASMQLAENALKEIQAMGPLQQTQAMCDLANRADTPLCRTYASWSPNIKLGFWYRLGELMEQGFVAPIPAGYQLSANANAVLATIQGLESGQQITVLRNAVVDMGFTAGKDGKRIAEPVVPPQDTASRTKVSIEGVTNATVLNYMDNLNANDFDTLIELFTSDGALQPPFQRPIVGKENVLRFFREECQNLKLIPERGVTEPAEDGFTQIKVTGKVQTPWFGGNVGMNIAWRFLLNPEGKIFFVAIDLLASPKELLNFA
For the molecule B4, in data set [5], the fitted dimer fraction (100 µM) came to 0.6 and the k1d (rate constant of the photo-induced dissociation of the OCP^O dimer) amounted to 1000 s⁻¹. Also, in data set [6], the stoichiometry N was 2. In data set [7], this molecule had a Kd of 10000 nM and a stoichiometry N of 2.
